From the RNAGym collection of RNA variant scans (doi:10.1021/acssynbio.7b00057)

B1: Pistol ribozyme (parent)
chain: GGGUCGUUGUUCCAUAAUCGCGUGGAUAUGGCACGCAAGUUUCUACCGGGCACCGUAAAUGUCCGACUGGAGCCGUUCGGGCGGCUAUAAACAGACCUCAGGCCCGAAGCGUGGCGGCACCUGCCGCCGGUGGUAAAAAAGAUCGGAAGAGCACACGUCU

Variants of: B1
Test: aptazyme ON/OFF ratio, guanine; higher = stronger switching; co-transcriptional cleavage with and without guanine

| Variant | aptazyme ON/OFF ratio |
| --- | --- |
| GGGUCGUACCAUUAUAAUCGCGUGGAUAUGGCACGCAAGUUUCUACCGGGCACCGUAAAUGUCCGACUGGAGCCGUUCGGGCGGCUAUAAACAGACCUCAGGCCCGAAGCGUGGCGGCACCUGCCGCCGGUGGUAAAAAAGAUCGGAAGAGCACACGUCU [U8A G9C U10C U11A C12U C13U] | 1.13 |
| GGGUCGUACCAUGAUAAUCGCGUGGAUAUGGCACGCAAGUUUCUACCGGGCACCGUAAAUGUCCGACUGGAGCCGUUCGGGCGGCUAUAAACAGACCUCAGGCCCGAAGCGUGGCGGCACCUGCCGCCGGUGGUAAAAAAGAUCGGAAGAGCACACGUCU [U8A G9C U10C U11A C12U C13G] | 1.06 |
| GGGUCGUACCAUAAUAAUCGCGUGGAUAUGGCACGCAAGUUUCUACCGGGCACCGUAAAUGUCCGACUGGAGCCGUUCGGGCGGCUAUAAACAGACCUCAGGCCCGAAGCGUGGCGGCACCUGCCGCCGGUGGUAAAAAAGAUCGGAAGAGCACACGUCU [U8A G9C U10C U11A C12U C13A] | 1.07 |
| GGGUCGUACCAGUAUAAUCGCGUGGAUAUGGCACGCAAGUUUCUACCGGGCACCGUAAAUGUCCGACUGGAGCCGUUCGGGCGGCUAUAAACAGACCUCAGGCCCGAAGCGUGGCGGCACCUGCCGCCGGUGGUAAAAAAGAUCGGAAGAGCACACGUCU [U8A G9C U10C U11A C12G C13U] | 1.16 |
| GGGUCGUACCAGGAUAAUCGCGUGGAUAUGGCACGCAAGUUUCUACCGGGCACCGUAAAUGUCCGACUGGAGCCGUUCGGGCGGCUAUAAACAGACCUCAGGCCCGAAGCGUGGCGGCACCUGCCGCCGGUGGUAAAAAAGAUCGGAAGAGCACACGUCU [U8A G9C U10C U11A C12G C13G] | 1.12 |
| GGGUCGUACCAGAAUAAUCGCGUGGAUAUGGCACGCAAGUUUCUACCGGGCACCGUAAAUGUCCGACUGGAGCCGUUCGGGCGGCUAUAAACAGACCUCAGGCCCGAAGCGUGGCGGCACCUGCCGCCGGUGGUAAAAAAGAUCGGAAGAGCACACGUCU [U8A G9C U10C U11A C12G C13A] | 1.06 |
| GGGUCGUACCCGAAUAAUCGCGUGGAUAUGGCACGCAAGUUUCUACCGGGCACCGUAAAUGUCCGACUGGAGCCGUUCGGGCGGCUAUAAACAGACCUCAGGCCCGAAGCGUGGCGGCACCUGCCGCCGGUGGUAAAAAAGAUCGGAAGAGCACACGUCU [U8A G9C U10C U11C C12G C13A] | 1.01 |
| GGGUCGUACCCGUAUAAUCGCGUGGAUAUGGCACGCAAGUUUCUACCGGGCACCGUAAAUGUCCGACUGGAGCCGUUCGGGCGGCUAUAAACAGACCUCAGGCCCGAAGCGUGGCGGCACCUGCCGCCGGUGGUAAAAAAGAUCGGAAGAGCACACGUCU [U8A G9C U10C U11C C12G C13U] | 1.04 |
| GGGUCGUACCCGGAUAAUCGCGUGGAUAUGGCACGCAAGUUUCUACCGGGCACCGUAAAUGUCCGACUGGAGCCGUUCGGGCGGCUAUAAACAGACCUCAGGCCCGAAGCGUGGCGGCACCUGCCGCCGGUGGUAAAAAAGAUCGGAAGAGCACACGUCU [U8A G9C U10C U11C C12G C13G] | 1.05 |
| GGGUCGUACCAAUAUAAUCGCGUGGAUAUGGCACGCAAGUUUCUACCGGGCACCGUAAAUGUCCGACUGGAGCCGUUCGGGCGGCUAUAAACAGACCUCAGGCCCGAAGCGUGGCGGCACCUGCCGCCGGUGGUAAAAAAGAUCGGAAGAGCACACGUCU [U8A G9C U10C U11A C12A C13U] | 1.13 |
| GGGUCGUACCAAAAUAAUCGCGUGGAUAUGGCACGCAAGUUUCUACCGGGCACCGUAAAUGUCCGACUGGAGCCGUUCGGGCGGCUAUAAACAGACCUCAGGCCCGAAGCGUGGCGGCACCUGCCGCCGGUGGUAAAAAAGAUCGGAAGAGCACACGUCU [U8A G9C U10C U11A C12A C13A] | 1.04 |
| GGGUCGUACCAAGAUAAUCGCGUGGAUAUGGCACGCAAGUUUCUACCGGGCACCGUAAAUGUCCGACUGGAGCCGUUCGGGCGGCUAUAAACAGACCUCAGGCCCGAAGCGUGGCGGCACCUGCCGCCGGUGGUAAAAAAGAUCGGAAGAGCACACGUCU [U8A G9C U10C U11A C12A C13G] | 1.05 |
| GGGUCGUACCCAAAUAAUCGCGUGGAUAUGGCACGCAAGUUUCUACCGGGCACCGUAAAUGUCCGACUGGAGCCGUUCGGGCGGCUAUAAACAGACCUCAGGCCCGAAGCGUGGCGGCACCUGCCGCCGGUGGUAAAAAAGAUCGGAAGAGCACACGUCU [U8A G9C U10C U11C C12A C13A] | 1.04 |
| GGGUCGUACCCAGAUAAUCGCGUGGAUAUGGCACGCAAGUUUCUACCGGGCACCGUAAAUGUCCGACUGGAGCCGUUCGGGCGGCUAUAAACAGACCUCAGGCCCGAAGCGUGGCGGCACCUGCCGCCGGUGGUAAAAAAGAUCGGAAGAGCACACGUCU [U8A G9C U10C U11C C12A C13G] | 1.01 |
| GGGUCGUACCCAUAUAAUCGCGUGGAUAUGGCACGCAAGUUUCUACCGGGCACCGUAAAUGUCCGACUGGAGCCGUUCGGGCGGCUAUAAACAGACCUCAGGCCCGAAGCGUGGCGGCACCUGCCGCCGGUGGUAAAAAAGAUCGGAAGAGCACACGUCU [U8A G9C U10C U11C C12A C13U] | 1.03 |
| GGGUCGUACCACUAUAAUCGCGUGGAUAUGGCACGCAAGUUUCUACCGGGCACCGUAAAUGUCCGACUGGAGCCGUUCGGGCGGCUAUAAACAGACCUCAGGCCCGAAGCGUGGCGGCACCUGCCGCCGGUGGUAAAAAAGAUCGGAAGAGCACACGUCU [U8A G9C U10C U11A C13U] | 1.11 |
| GGGUCGUACCACGAUAAUCGCGUGGAUAUGGCACGCAAGUUUCUACCGGGCACCGUAAAUGUCCGACUGGAGCCGUUCGGGCGGCUAUAAACAGACCUCAGGCCCGAAGCGUGGCGGCACCUGCCGCCGGUGGUAAAAAAGAUCGGAAGAGCACACGUCU [U8A G9C U10C U11A C13G] | 1.07 |
| GGGUCGUACCACAAUAAUCGCGUGGAUAUGGCACGCAAGUUUCUACCGGGCACCGUAAAUGUCCGACUGGAGCCGUUCGGGCGGCUAUAAACAGACCUCAGGCCCGAAGCGUGGCGGCACCUGCCGCCGGUGGUAAAAAAGAUCGGAAGAGCACACGUCU [U8A G9C U10C U11A C13A] | 1.16 |
